In this experiment the test system is simian rotavirus SA11 strain. The experiment is described as follows: Plaque assay: antiviral action against simian rotavirus in MA104 cells (infection-suppressing ratio). Type of experiment: cell-based. To be noted: LF alone, n=3. As to the method: The simian rotavirus SA11 strain (Nihon Bioresearch Inc.) was inoculated to the MA104 cells (Sigma-Aldrich) of African green monkey kidney maintained in a minimum essential medium (Sigma-Aldrich, henceforth referred to simply as “medium”). The simian rotavirus SA11 strain, for example, can be obtained from American Type Culture Collection (ATCC) as ATCC VR-1565. To the medium, lactoferrin (LF) and/or the human milk oligosaccharide(s) shown below were added beforehand alone or in combination at the following concentrations, respectively (n=3).
LF (produced by Morinaga Milk Industry Co., Ltd.): 0, 0.1 or 1.0 mg/mL
2′-Fucosyllactose (2′-FL, Funakoshi Co., Ltd.): 0, 0.1, 0.5, or 2.5 mg/mL
3-Fucosyllactose (3-FL, Funakoshi Co., Ltd.): 0, 0.1, or 0.5 mg/mL
3′-Sialyllactose (3′-SL, Funakoshi Co., Ltd.): 0, 0.1, or 0.5 mg/mL
6′-Sialyllactose (6′-SL, Funakoshi Co., Ltd.): 0, 0.1, or 0.5 mg/mL […]
Degree of infection was evaluated based on the number of “plaques” formed when the cells were infected with the virus. Specifically, the antiviral effects of lactoferrin and human milk oligosaccharides were evaluated based on “plaque-suppressing ratio (%)”, i.e., the ratio of “plaque counts observed with lactoferrin and/or human milk oligosaccharide(s) supplementation” to “plaque counts observed without these supplementation”. […]

B1: lactoferrin (protein, UniProt P24627 20-708, looked up)
Lactotransferrin: APRKNVRWCTISQPEWFKCRRWQWRMKKLGAPSITCVRRAFALECIRAIAEKKADAVTLDGGMVFEAGRDPYKLRPVAAEIYGTKESPQTHYYAVAVVKKGSNFQLDQLQGRKSCHTGLGRSAGWIIPMGILRPYLSWTESLEPLQGAVAKFFSASCVPCIDRQAYPNLCQLCKGEGENQCACSSREPYFGYSGAFKCLQDGAGDVAFVKETTVFENLPEKADRDQYELLCLNNSRAPVDAFKECHLAQVPSHAVVARSVDGKEDLIWKLLSKAQEKFGKNKSRSFQLFGSPPGQRDLLFKDSALGFLRIPSKVDSALYLGSRYLTTLKNLRETAEEVKARYTRVVWCAVGPEEQKKCQQWSQQSGQNVTCATASTTDDCIVLVLKGEADALNLDGGYIYTAGKCGLVPVLAENRKSSKHSSLDCVLRPTEGYLAVAVVKKANEGLTWNSLKDKKSCHTAVDRTAGWNIPMGLIVNQTGSCAFDEFFSQSCAPGADPKSRLCALCAGDDQGLDKCVPNSKEKYYGYTGAFRCLAEDVGDVAFVKNDTVWENTNGESTADWAKNLNREDFRLLCLDGTRKPVTEAQSCHLAVAPNHAVVSRSDRAAHVKQVLLHQQALFGKNGKNCPDKFCLFKSETKNLLFNDNTECLAKLGGRPTYEEYLGTEYVTAIANLKKCSTSPLLEACAFLTR
notes: produced by Morinaga Milk Industry Co., Ltd
For B1, the infection-suppressing ratio (0.1 mg/mL) is 8.7% and the infection-suppressing ratio (1.0 mg/mL) turned out to be 39%.

These data come from patent US20220226382A1, “Nutritional Composition” (MORINAGA MILK INDUSTRY CO., LTD., priority 2019, published 2022).
